Laboratory results: paper doi:10.1101/2025.07.14.664640 (bioRxiv, 2025)

Biological target: T1, MBP-HS1BP3 full length (UniProt Q53T59 1-392)
T1 sequence (looked up): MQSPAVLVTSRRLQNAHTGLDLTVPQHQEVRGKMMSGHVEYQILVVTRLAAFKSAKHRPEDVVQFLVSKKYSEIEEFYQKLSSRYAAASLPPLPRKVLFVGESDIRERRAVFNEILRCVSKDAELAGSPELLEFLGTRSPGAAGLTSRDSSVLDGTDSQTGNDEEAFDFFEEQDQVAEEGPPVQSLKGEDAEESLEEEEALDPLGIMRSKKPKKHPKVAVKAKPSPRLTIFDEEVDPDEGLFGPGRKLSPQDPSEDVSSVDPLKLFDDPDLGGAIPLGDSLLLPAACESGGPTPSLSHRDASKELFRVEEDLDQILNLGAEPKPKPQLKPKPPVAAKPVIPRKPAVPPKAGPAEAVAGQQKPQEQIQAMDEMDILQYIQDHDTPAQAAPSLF
Experiment: pull-down

binding result: binds
B1: GST-SH3 (SH3 domain of cortactin fused to GST) (domain or fragment)
chain: not shown
